Reference: patent publication US10117953B2, “Antibody drug conjugates” (Novartis AG, priority 2013, dated 2018)

B1: 9P3: hybridoma derived anti-cKIT antibody; VH SEQ ID NO.9, VL SEQ ID NO.18 (antibody, V domains shown)
VH: EVRLVESEGGLVQPRSSMKLSCTASGFTFSDYYMAWVRQVPEKGLEWVANINYDGSSTYYLDSLKSRFIISRDNAKNILYLQMSSLKSEDTATYYCARGDYYGTTYWYFDVWGTGTTVTVSS
VL: DIQMTQTTSSLSASLGDRVTISCRASQDISNYLNWYQQKPDGTVKLLIYYTSRLQSGVPSRFSGSGSGTDYSLTISNLEQEDIATYFCQQGKKLWSFGGGTKLEIKR

Legend:
[1] = system: Uke-1 cells; assay: ADCC activity in vitro (Calcein release, NK3.3 effector cells); format: cell-based, human; conditions: effector to target ratio 20 to 1
Description: In brief, Uke-1 cells were stained with Calcein acetoxy-methyl ester (Calcein-AM; Sigma-Aldrich catalog #17783-5MG, St. Louis, Mo.), washed twice, pipetted into a 96-well microtiterplate (96 well, U-bottomed, clear plastic; Corning Costar, catalog #650 160, Tewksbury, Mass.) at a concentration of 5000 cells per well and pre-incubated for 10 min with a serial dilution of the above mentioned antibodies and proteins (from 50,000 to 0.003 μg per ml) before adding the effector NK3.3 cells for 1 hour in an effector to target ratio of 20 to 1. In order to calculate the antibody specific lysis of the target cells, a parallel incubation of target cells only without antibody or effector cells served as a baseline and negative control, whereas the positive control or maximal lysis or hundred percent specific lysis was determined by lysis of target cells only with a 1% Triton-X 100 solution. […] Following a co-incubation of target and effector cells, the microtiterplate was centrifuged and an aliquot of the supernatant fluid was transferred to another microtiterplate (96 well, flat-bottomed, black with clear bottom; Corning Costar, catalog #3904, Tewksbury, Mass.) and the concentration of free Calcein in solution was determined with a fluorescence counter (Victor 3® multilabel counter, Perkin Elmer, Waltham, Mass.).

[2] = target: T1, cKIT extra-cellular domain (SEQ ID NO:160) (Homo sapiens, UniProt P10721); assay: Epitope mapping by deuterium exchange mass spectrometry (HDx-MS); format: binding; conditions: Region 1 residues 109-119, Region 2 residues 185-196
T1 construct: LENGTH: 503 amino acids; made in house; host or cells: HEK293 derived cell lines (293FS), transient transfection
Description: In these experiments, the deuterium uptake of cKIT extra-cellular domain (SEQ ID NO:160, see below) was measured in the absence and presence of a therapeutic mAb, 9P3. Regions in cKIT that show a decrease in deuterium uptake upon binding of the antibody are likely to be involved in the epitope; however, due to the nature of the measurement it is also possible to detect changes remote from the direct binding site (allosteric effects). Usually, the regions that have the greatest amount of protection are involved in direct binding although this may not always be the case. In order to delineate direct binding events from allosteric effects orthogonal measurements (e. g. X-ray crystallography, alanine mutagenesis) are necessary.
The cKIT epitope mapping experiments are performed on a Waters Synapt® G2 HDx-MS platform, which includes LEAP® robot system, nanoACQUITY® UPLC System, and Synapt® G2 mass spectrometer. In this method, triplicate control experiments are carried out as follows. 300 pmol (1.4 mg/ml) of cKIT antigen is diluted into 110 ul of 95% deuterated PBS buffer (pH 7.4) and incubates at room temperature on a bench rotator for 25 minutes (% D=85.5%). Deuterium exchange is quenched by 1:1 dilution with cold quench buffer (6M Urea and 1M TCEP pH=2.5) on ice for 5 min. […] The sample is analyzed using the same on-line pepsin digestion/LC-MS setup as the control experiment.

[3] = system: GIST T1 subcutaneous tumor xenograft; assay: Efficacy of murine 9P3 ADCs, MCC-DM1 vs SPDB-DM4; format: in vivo, mouse; conditions: single i.v. dose 10 mg/kg, unconjugated antibody

T1 sequence (P10721 with tags, fused parts or gaps isoform P10721-2): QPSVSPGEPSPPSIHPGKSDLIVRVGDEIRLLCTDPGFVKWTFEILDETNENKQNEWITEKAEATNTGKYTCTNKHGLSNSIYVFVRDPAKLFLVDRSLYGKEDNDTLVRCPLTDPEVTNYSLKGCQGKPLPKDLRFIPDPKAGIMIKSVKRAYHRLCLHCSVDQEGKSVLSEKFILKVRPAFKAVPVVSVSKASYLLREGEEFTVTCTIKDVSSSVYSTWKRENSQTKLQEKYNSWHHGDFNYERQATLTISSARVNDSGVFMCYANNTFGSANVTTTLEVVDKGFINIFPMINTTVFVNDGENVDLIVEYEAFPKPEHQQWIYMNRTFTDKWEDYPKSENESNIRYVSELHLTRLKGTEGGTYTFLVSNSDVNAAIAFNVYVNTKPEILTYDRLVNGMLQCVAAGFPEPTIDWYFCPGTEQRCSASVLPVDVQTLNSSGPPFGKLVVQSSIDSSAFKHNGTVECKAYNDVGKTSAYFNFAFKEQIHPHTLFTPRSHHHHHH

| Molecule | ADCC [1] | epitope (regions protected from deuterium exchange) [2] | antitumor efficacy [3] |
| --- | --- | --- | --- |
| MabCampath [reference compound] | mediated ADCC killing of the target cells |  |  |
| B1 |  | discontinuous epitope that is remote from the SCF binding sites | Neither the control non-specific IgG1 ADCs nor the unconjugated 9P3 were efficacious |
